Test results published in patent publication US20240166738A1 (priority 2021, published 2024).
Residue numbers refer to the chain shown, from its start.

B1: TM-88: anti-TMEM106B monoclonal antibody; VH SEQ ID NO: 493, VL SEQ ID NO: 528 (antibody, V domains shown)
VH: EAQLQQSGPVLVKPGASVKMSCKTSGYTFTDYYINWVKQSHGKSLEWIGVINPYSGATYYTQKFKGKATLTVDKSSSTAYMELNSQTSEDSAVYYCARGGYDYGHWYFDVWGTGTTVTVSS
VL: ETTVTQSPASLSMAIGEKVTIRCITSSDIDDHMNWYRQKPGEPPEFLISEGNALRPGVPSRFSSSGYGTDFIFTIENILSEDVADYYCLQSDNLPLTFGAGTKLELK
modifications: Variable Heavy Chain -- TM-88; Variable Light Chain -- TM-88
B2: TM-7: anti-TMEM106B monoclonal antibody; CDR-H1-3 SEQ ID NO: 8, 41, 84; CDR-L1-3 SEQ ID NO: 126, 166, 190 (antibody, V domains shown)
VH: EVQLQQSGPVLVKPGPPVKISCKASGFTFTDYYIHWVKLSHGKSLEWIGLVYPYNGDTDYNQKFKGKATLTVDTSSSTAYMELNSLTSEDSAVYYCARTYYANSPDYWGQGTTVTVSS
VL: DIVMTQSPSSLSVSAGEKVTMSCKSSQSLLNSGNQRNYLAWYQQKPGQPPKLLIYGASTRESGVPDRFTGSGSGTDFTLTISNVQAEDLAVYYCQNDHSYPLTFGAGTKLELK
B3: TM-86: anti-TMEM106B monoclonal antibody; VH SEQ ID NO: 491, VL SEQ ID NO: 526 (antibody, V domains shown)
VH: EVQLQQSGPVLVKPGASVKMSCKASGYTFTDYYIHWVKQSHGRSLEWIGVISPYNDNTNYNQKFKGKATLTVDKSSSTAYMELNSLTSEDSAVYYCVRTYYSNYFDYWGQGTTLTVSS
VL: B2 VL with R36K, Y42H, K45R, D76E, N83S
modifications: Variable Heavy Chain -- TM-86; Variable Light Chain -- TM-86
B4: TM-5: anti-TMEM106B monoclonal antibody; CDR-H1-3 SEQ ID NO: 6, 39, 82; CDR-L1-3 SEQ ID NO: 124, 164, 188 (antibody, V domains shown)
VH: QVQLQQSGTELARPGASVKVSCKASGYIFTTYGITWVKQRGGQGLEWIGEIYPRSDNTYYNEKFKDKATLTADKSSSTAYMELRSLTSEDSAVYFCARSKGSGTGDYWGQGTTVTVSS
VL: DIQMTQSPASLSASVGETVTITCRASENIYIYLAWYQQKQGKTPQLLVYNGKMLAENVPSRFSGSGSGTQFSLKINSLQPEDFGSYYCQHHYGSPPAFGAGTKLELK
B5: TM-84: anti-TMEM106B monoclonal antibody; VH SEQ ID NO: 489, VL SEQ ID NO: 524 (antibody, V domains shown)
VH: QVQLQQSGAELVKPGASVKMSCKASGYTFTTFPIEWMKQNHGKSLEWIGNFHPYNDDTKYNEKFKGKATLTVEKSSSTVYLELSRLTSDDSAVYYCARYFYGGMDYWGQGTSVTVSS
VL: DIQMTQSPASLSVSVGETVTITCRASENIYSSLGWYHQKQGKSPQLLVFAATNLADGVPSRFSGSGSGTQYSLKINSLQSEDFGTYYCQHLWSVPWTFGGGTKLEIK
modifications: Variable Heavy Chain -- TM-84; Variable Light Chain -- TM-84
B6: TM-15: anti-TMEM106B monoclonal antibody; CDR-H1-3 SEQ ID NO: 15, 49, 92; CDR-L1-3 SEQ ID NO: 133, 171, 197 (antibody, V domains shown)
VH: QVQLQQPGAEFVRPGASVKLSCKASGYTFTNYWITWVKQRPGHGLEWIGDIYPGSGNSNYNESFKRKATLTVDTSSSTAYMHLSSQTSEDSAVYFCARKAYGGFPYWGQGTLVTVSA
VL: DIQMTQSPASLSVSVGETVTITCRVSENIYNNLAWYQQKQEKSPQLLVFAATNLADGVPSRFSGSGSGTQFSLKINSLQSEDFGTYYCQHFWDTPFTFGSGTKLEIK

Biological target: GST-TMEM106B (truncated, comprising amino acids 122-210 of SEQ ID NO:1) (Homo sapiens, UniProt Q9NUM4)
Sequence (Q9NUM4 122-210): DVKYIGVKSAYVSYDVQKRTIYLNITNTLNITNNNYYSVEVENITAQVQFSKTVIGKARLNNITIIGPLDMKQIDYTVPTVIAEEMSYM
Experiment: Pre-mix epitope binning of anti-TMEM106B antibodies (Carterra / Lake Pharma)
Format: binding
Parameters: key to epitope bin: Bin 1: competes for binding to the same or overlapping TMEM106B region as the TM1, TM17, TM22, TM26, TM79, and/or TM82 antibodies; Bin 2: competes for binding to the same or overlapping TMEM106B region as the TM3, TM9, TM10, TM11, TM12, TM13, TM18, TM19, TM21, TM24, TM25, TM32, TM35, TM37, TM42, TM45, TM48, TM54, TM59, TM60, TM61, and/or TM76 antibodies; Bin 3: competes for binding to the same or overlapping TMEM106B region as the TM7, TM15, TM83, and/or TM84 antibodies; Bin 4: competes for binding to the same or overlapping TMEM106B region as the TMS, TM28, TM29, TM30, TM63, TM64, TM72, TM78, TM80, TM86, and/or TM88 antibodies; Bin 5: does not bind to a truncated TMEM106B comprising amino acids 122-210 of SEQ ID NO:1
Settings: competition for binding to truncated GST-TMEM106B (amino acids 122-210)
Procedure: (§1) Monoclonal anti-TMEM106B antibodies were immobilized to a CMD 50M chip (Xantec # SPMXCMD5OM lot# SCCMD50M0416). The running buffer was HBS-EP+ with 1 mg/mL BSA. The GST-TMEM106B (truncated, comprising amino acids 122-210 of SEQ ID NO:1) antigen was prepared at a final concentration of 55 nM (corresponding to 2 μg/mL) and mixed with the competing analyte anti-TMEM106B antibodies at a final concentration of 333 nM (corresponding to 50 μg/mL) or compared to a buffer control. Samples were injected for 5 minutes over the array and regenerated after every cycle with 1 minute of two parts Pierce IgG-Elution buffer (ThermoFisher Cat#21004) and 1 part of 10 mM Glycine, pH 2.0 (Carterra).
Anti-TMEM106B antibodies sorted into various competing bins and resulting binning profiles. […] Antibodies within Bin 3 or Bin 4 partially block Bin 2 antibodies.
as §1, with “SPMXCMD50M” for “SPMXCMD5OM”, “lmg/ml” for “1 mg/mL”, “(truncated)” for “(truncated, comprising amino acids 122-210 of SEQ ID NO:1)”, “μg/ml)” for “μg/mL)”

**Q.** With B1 as the molecule, how does the epitope bin read?
**A.** The epitope bin was “Bin 4”.

**Q.** B2 was tested. Which epitope bin did it give?
**A.** Its epitope bin is “Bin 3”.

**Q.** B3 was tested. Which epitope bin did it give?
**A.** The epitope bin was “Bin 4”.

**Q.** With B4 as the molecule, how does the epitope bin read?
**A.** The epitope bin was “Bin 4”.

**Q.** How did the epitope bin turn out when B5 was run?
**A.** The epitope bin was “Bin 3”.

**Q.** For B6, which epitope bin is on record?
**A.** The epitope bin was “Bin 3”.

Same assay, conditions: epitope bin number; pre-mix binning on truncated GST-TMEM106B

**Q.** B1 was tested. Which “Binding Community/Bin” value did it give?
**A.** Its value is 4.

**Q.** B2 was tested. Which “Binding Community/Bin” value did it give?
**A.** Its value is 3.

**Q.** For B3, which “Binding Community/Bin” value is on record?
**A.** Its value is 4.

**Q.** B4 was tested. Which “Binding Community/Bin” value did it give?
**A.** The value was 4.

**Q.** How did the “Binding Community/Bin” value turn out when B5 was run?
**A.** Its value is 3.

**Q.** For B6, which “Binding Community/Bin” value is on record?
**A.** The value was 3.
